Experimental findings from article PMC9640623, “SAMHD1 deacetylation by SIRT1 promotes DNA end resection by facilitating DNA binding at double-strand breaks” (Nature Communications, 2021) are described below.

In the assay the target is T1, 6xHis-SAMHD1 wild-type (full-length, recombinant) (human, UniProt Q9Y3Z3 1-626).
T1 construct: SAMHD1, full-length, from pET14b-6xHis-SAMHD1 (gift from Dr. Baek Kim); with N-terminal His tag and linker region, calculated molecular weight 74 kDa; Tetramer only stated after preincubation with dGTP; also called recombinant SAMHD1; SAMHD1 WT protein; source: E. coli BL21 Rosetta, purified (His-Trap, Superdex 200 SEC); not shown: His6, N-terminal, kept
The assay can be described thus: pull-down; GST-SIRT1 (193-741) pre-incubated with glutathione-agarose beads in 50 mM Tris-Cl pH 8, 150 mM NaCl, protease inhibitors, 1 h at 4 °C; recombinant SAMHD1 added for 2 h at 4 °C; blots with anti-SAMHD1 or anti-GST. The note with it: both partners purified.

T1 sequence (Q9Y3Z3 whole entry): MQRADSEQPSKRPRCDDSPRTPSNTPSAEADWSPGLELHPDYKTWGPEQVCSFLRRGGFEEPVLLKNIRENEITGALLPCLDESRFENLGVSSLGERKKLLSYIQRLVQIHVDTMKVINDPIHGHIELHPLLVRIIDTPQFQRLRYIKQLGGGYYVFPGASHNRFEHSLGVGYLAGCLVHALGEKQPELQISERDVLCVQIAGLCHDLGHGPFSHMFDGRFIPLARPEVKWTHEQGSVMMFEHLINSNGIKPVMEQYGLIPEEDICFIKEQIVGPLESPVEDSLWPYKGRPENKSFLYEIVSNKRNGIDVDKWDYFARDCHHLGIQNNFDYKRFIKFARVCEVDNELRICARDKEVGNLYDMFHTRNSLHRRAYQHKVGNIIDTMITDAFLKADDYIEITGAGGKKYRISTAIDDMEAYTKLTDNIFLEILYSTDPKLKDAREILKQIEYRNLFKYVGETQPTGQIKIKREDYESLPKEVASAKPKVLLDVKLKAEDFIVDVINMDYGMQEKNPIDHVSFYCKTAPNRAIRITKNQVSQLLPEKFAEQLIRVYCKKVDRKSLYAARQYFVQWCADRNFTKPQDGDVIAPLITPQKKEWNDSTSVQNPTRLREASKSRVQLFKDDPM

B1: GST-SIRT1 (containing amino acids 193-741 of SIRT1) (domain or fragment, UniProt Q96EB6 193-741, looked up)
chain: MIGTDPRTILKDLLPETIPPPELDDMTLWQIVINILSEPPKRKKRKDINTIEDAVKLLQECKKIIVLTGAGVSVSCGIPDFRSRDGIYARLAVDFPDLPDPQAMFDIEYFRKDPRPFFKFAKEIYPGQFQPSLCHKFIALSDKEGKLLRNYTQNIDTLEQVAGIQRIIQCHGSFATASCLICKYKVDCEAVRGDIFNQVVPRCPRCPADEPLAIMKPEIVFFGENLPEQFHRAMKYDKDEVDLLIVIGSSLKVRPVALIPSSIPHEVPQILINREPLPHLHFDVELLGDCDVIINELCHRLGGEYAKLCCNPVKLSEITEKPPRTQKELAYLSELPPTPLHVSEDSSSPERTSPPDSSVIVTLLDQAAKSNDDLDVSESKGCMEEKPQEVQTSRNVESIAEQMENPDLKNVGSSTGEKNERTSVAGTVRKCWPNRVAKEQISRRLDGNQYLFLPPNRYIFHGAEVYSDSEDDVLSSSSCGSNSDSGTCQSPSLEEPMEDESEIEEFYNGLEDEPDVPERAGGAGFGTDGDDQEAINEAISVKQEVTDMN
notes: SIRT1 amino acids 193-741, recombinant, lacking N-terminal amino acids 1-192; The results call it bacterially-purified; also called GST-SIRT1 (lacking N-terminal amino acids 1–192); source: bought: Active Motif # 31533
For the molecule B1, the binding result is “binds”.
